The nature of data set [1]: Exacerbation/tobacco smoke mouse model: weight loss and tolerability. Type of data set: in vivo, C57BL/6J mice. As to the method:
(§1) The aim of the study was to determine the effect of IL-18BP, administered at three dose levels, by the sub-cutaneous route, on Polyinosinic:polycytidylic acid-induced exacerbation of tobacco-smoke induced pulmonary inflammation, in C57BL/6J mice. High level of dexamethasone, dosed orally, was included in the study as a reference agent.
(§2) Mice received either vehicle (PBS) or IL-18BP. IL-18BP was given subcutaneously to 3 groups of animals respectively at 1, 3 or 10 mg/kg 2 h prior to the initial tobacco smoke exposure from Day 1 to Day 4. Mice received orally either vehicle or dexamethasone (10 mg/kg) 1 h prior to each twice daily exposure. Mice received by intranasal administration either the vehicle or Polyinosinic:polycytidylic acid (2 mg/kg) 2 h prior to the initial air or tobacco smoke exposure on Day 4 to induce lung inflammation exacerbation. Tobacco smoke exposure was performed during the morning and afternoon as follow: Day 1 for 15 min, Day 2 for 25 min, Day 3 for 30 min and Day 4 for 30 min.
As an example, weight loss was mitigated by IL-18BP even though both Students t-test and ANOVA statistical analyses were not significant (see FIG. 10). A large majority of mice receiving 3 and 10 mg/kg IL-18BP lost respectively 6-7% weight in contrast to the control exposed to tobacco smoke and p[I:C] that lost about 9%.

Data set [2] deals with T1, IL-18 (Homo sapiens, UniProt Q14116).
T1 sequence (Q14116 37-193): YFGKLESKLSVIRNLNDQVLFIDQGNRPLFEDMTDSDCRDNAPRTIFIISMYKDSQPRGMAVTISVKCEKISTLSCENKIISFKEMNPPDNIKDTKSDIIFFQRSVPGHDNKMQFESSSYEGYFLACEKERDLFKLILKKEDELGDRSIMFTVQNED
Kind of data set: New BIAcore setup: IL-18BP bound to chip, affinity to IL-18. It is filed as binding. The conditions noted are these: IL-18BP on BIAcore chip. The text has this: Following the above KD results obtain by titration, we tested the binding affinity of IL-18BP to IL-18 with a simpler BIAcore setup consisting of binding IL-18BP to the BIAcore chip and then testing its affinity to IL-18. The method setup is the contrary of Kim et al 2000^8, who bound IL-18 to the BIAcore chip with a monoclonal antibody and then tested the affinity of the complex antibody-IL-18 to IL-18BP.

The target in data set [3] is T1, IL-18. Nature of the data set: KD calculation by titration with free IL-18 ELISA (IL-18BP capture). It is filed as binding. The conditions noted are these: read-out: KD between human IL-18 and IL-18BP by titration. As to the method:
Microplate wells are coated with an appropriate volume phosphate buffer saline solution containing recombinant human IL-18BP. Plates are incubated for a period of time at 4° C. and then stabilized with a blocking buffer containing bovine serum albumin or other appropriate blocking agents. Once the reaction is finished, microplates are sealed and stored at 4° C. until used for detection of free IL-18. Microplates can also be dried in a stabilizing solution allowing storage at room temperature and then be reconstituted by hydration when needed for assay.
As an example, for a final reaction volume of 100 μl, dispense first 80 μl of biotin/antibody conjugate. Samples or biological fluids containing free IL-18 are tested with the IL-18BP coated microplates. After that, 20 μl sample volume containing biological fluid or standard is dispensed per microplate well. Non-diluted or diluted biological fluid can be but is not restricted to serum, urine, tear, saliva, bile, sweat, exhalation or expiration, sputum, bronchoalveolar fluid, sebum, cellular, gland, mucosa or tissue secretion, biopsy, homogenized tissue. […] The resulting reactions are then monitored with a microplate reader at an appropriate nanometer wavelength for absorbance or fluorescence of the produced reagent. […]
KD was calculated based on the following formula: KD=[free IL-18]×[free IL-18BP]/[IL-18/IL-18BP complex] […]

A further data set deals with G-CSF. Nature of the data set: Exacerbation/tobacco smoke mouse model: G-CSF in BALF by ELISA. Type of data set: in vivo, C57BL/6J mice. Particulars: three tested doses 1, 3, 10 mg/kg s.c., day 5, FIG. 9. As to the method:
as §1
Mice received either vehicle (PBS) or IL-18BP. IL-18BP was given subcutaneously to 3 groups of animals respectively at 1, 3 or 10 mg/kg 2 h prior to the initial tobacco smoke exposure from Day 1 to Day 4. Mice received orally either vehicle or dexamethasone (10 mg/kg) 1 h prior to each twice daily exposure. Mice received by intranasal administration either the vehicle or Polyinosinic:polycytidylic acid (2 mg/kg) 2 h prior to the initial air or tobacco smoke exposure on Day 4 to induce lung inflammation exacerbation. […]
Following the above treatments, animals were terminally anaesthetised on Day 5. […] Cells recovered from the BALF were counted using the Sysmex cell counter.
G-CSF is well acknowledged as key cytokine stimulating the survival, proliferation, differentiation, and function of neutrophil precursors and mature neutrophils. […] The presence of G-CSF in the BALF was monitored with a commercially available ELISA kit.

In data set [4] the test system is neutrophil infiltration in the lung airway space. Nature of the data set: Exacerbation/tobacco smoke mouse model: neutrophil infiltration in lung airway space. Type of data set: in vivo, C57BL/6J mice. As to the method: as §1, §2
(§3) Following the above treatments, animals were terminally anaesthetised on Day 5. After that, a blood sample was taken via the sub-clavian artery (plasma) and the animals were bronchoalveloar lavaged with 3×0.4 ml of PBS for further cellular and cytokine/mediator analysis. […] Cells recovered from the BALF were counted using the Sysmex cell counter.

Data set [5] has as its target T1, IL-18. The conditions noted are these: cited from earlier work.
The subject of data set [6] is total cell infiltration in the lung airway space. Kind of data set: Exacerbation/tobacco smoke mouse model: total cell infiltration in lung airway space (BALF). It is filed as in vivo, C57BL/6J mice. On the procedure: as §1, §2, §3
Data set [7] concerns the target T1, IL-18. Nature of the data set: Titration of free IL-18 as a function of IL-18BP level (free IL-18 ELISA). It is filed as binding. Particulars: 400 pg/mL IL-18 in PBS with 5% BSA. On the procedure: A constant quantity of recombinant IL-18 was titrated as a function of different and well defined quantities of IL-18BP in order to understand when free IL-18 is not any more detectable. A PBS solution of 400 pg/mL IL-18 supplemented by 5% BSA was spiked with defined quantities of IL-18BP ranging from 0 to 10′000 pg/mL. The molar ratios were calculated according to the respective molecular weight of IL-18 and IL-18BP. The free IL-18 detection was performed with ELISA using IL-18BP for IL-18 as described above. […] In contrast, when molar ratio is lower than 15, free IL-18 is easily detectable.

Read-outs that look alike come from different tables or passages of the source.

B1: IL-18BP: IL-18 Binding Protein, naturally occurring IL-18 antagonist, as shown in SEQ ID NO: 7 (protein)
chain: TPVSQTTTAATASVRSTKDPCPSQPPVFPAAKQCPALEVTWPEVEVPLNGTLSLSCVACSRFPNFSILYWLGNGSFIEHLPGRLWEGSTSRERGSTGTQLCKALVLEQLTPALHSTNFSCVLVDPEQVVQRHVVLAQLWAGLRATLPPTQEALPSSHSSPQQQG
modifications: IL-18 binding protein
Take B1: the Weight loss in data set [1] (3 and 10 mg/kg s.c., large majority of mice, day 5) was 6-7%. Further, in data set [1] (exacerbation/tobacco smoke mouse model), the Tolerability result is reported as “well tolerated”. Besides, the Ka with IL-18 [2] was 5.3 ± 1.2 10^+5/Ms. Also, the Kd with IL-18 [3] (PBS supplemented by 5% BSA diluent) is 35 pM; with IL-18 [3] (serum diluent (healthy volunteer sera depleted in endogenous IL-18BP)) it was 50 pM; with IL-18 [5] (BIAcore, literature, read-out: KD reported in the literature (Kim et al 2000)) it was 400 pM; with IL-18 [5] (used in Law of Mass Action calculation, read-out: Dissociation constant as calculated by Kim et al 2000), 400 pM. Besides, the “Mitigation of G-CSF release in the lung airways” value with G-CSF was “statistically relevant effect”. Also, the “Inhibition of neutrophil infiltration” value in data set [4] (10 mg/kg s.c., day 5, FIG. 8) is recorded as “best statistical efficacy”; in data set [4] (3 and 10 mg/kg s.c., day 5, FIG. 7) it was “statistically valuable efficacy”. Besides, the “Exacerbated inflammation inhibition (total cell infiltration)” value in data set [6] (10 mg/kg s.c., day 5, FIG. 6) is “clear and statistically relevant efficacy”. The “Mitigation of total cell infiltration in the lung” value in data set [6] (3 and 10 mg/kg s.c., day 5, compared to dexamethasone, FIG. 5) was “statistically valuable efficacy”. Further, the “IL-18BP concentration at which 400 pg/mL IL-18 detection is near background” value with IL-18 [7] is listed as no less than 6000 pg/mL.

The values are drawn from patent publication US11530263B2, “IL-18 binding protein (IL-18BP) in inflammatory diseases” (AB2 BIO SA, priority 2013, dated 2022).
